# In paper PMC12432895 (Molecular Therapy, 2025):
# B1: ACI-5891 mouse IgG2a mAb produced with the bicistronic IRES-LC/HC expression cassette (antibody, V domains shown)
# VH: EVQLQQSGPELVKPGASVKISCKTSGFTFTEYSMHWVKQSHGKSLEWIGGINPNNGGTSYNQKFKGKATLTVDKSSSTAYMELRSLTSEDSAVYYCARESWGQGTTLTVSS
# VL: not shown
# B2: ACI-5891 human IgG1 chimeric mAb produced with the bicistronic IRES-LC/HC expression cassette (antibody, V domains shown)
# VH: B1 VH
# VL: not shown
# B3: ACI-5891 human IgG1 chimeric reference mAb, conventionally produced (antibody, V domains shown)
# VH: B1 VH
# VL: not shown
# B4: anti-human TDP-43 mAb ACI-5891, mouse IgG2a, conventionally produced reference mAb (antibody, V domains shown)
# VH: B1 VH
# VL: not shown
# Biological target: recombinant soluble full-length human TDP-43 (transactive response DNA binding protein-43) (Homo sapiens (Human)., UniProt Q13148)
# Sequence (Q13148 whole entry): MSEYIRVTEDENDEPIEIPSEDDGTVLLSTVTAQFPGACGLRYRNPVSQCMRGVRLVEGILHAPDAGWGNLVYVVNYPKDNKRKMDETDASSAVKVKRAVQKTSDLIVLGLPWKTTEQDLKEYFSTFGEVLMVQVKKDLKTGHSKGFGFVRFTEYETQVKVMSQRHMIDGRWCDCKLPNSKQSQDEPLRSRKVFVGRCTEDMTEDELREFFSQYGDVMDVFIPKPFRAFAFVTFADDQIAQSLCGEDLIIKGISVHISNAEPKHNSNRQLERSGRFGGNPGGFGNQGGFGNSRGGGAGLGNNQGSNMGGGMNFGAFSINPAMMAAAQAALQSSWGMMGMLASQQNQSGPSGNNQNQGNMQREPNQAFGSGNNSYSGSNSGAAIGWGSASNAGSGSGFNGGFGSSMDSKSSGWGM
# Test: SPR
row,Kd [pM],Binder
1,90,B1
2,92,B2
3,87,B3
4,92,B4
